The record followed here is patent publication US20180360972A1, “THERAPEUTIC COMPOUNDS” (REGENTS OF THE UNIVERSITY OF MINNESOTA, priority 2017, published 2018).

The target of this assay is mMC4R-NanoLuc and mMC4R-HaloTag homodimer (mouse) (UniProt P56450). Kind of assay: cell-based or functional assay.
Chain of mMC4R-NanoLuc and mMC4R-HaloTag homodimer (mouse) (P56450 whole entry, chain 1 of 2): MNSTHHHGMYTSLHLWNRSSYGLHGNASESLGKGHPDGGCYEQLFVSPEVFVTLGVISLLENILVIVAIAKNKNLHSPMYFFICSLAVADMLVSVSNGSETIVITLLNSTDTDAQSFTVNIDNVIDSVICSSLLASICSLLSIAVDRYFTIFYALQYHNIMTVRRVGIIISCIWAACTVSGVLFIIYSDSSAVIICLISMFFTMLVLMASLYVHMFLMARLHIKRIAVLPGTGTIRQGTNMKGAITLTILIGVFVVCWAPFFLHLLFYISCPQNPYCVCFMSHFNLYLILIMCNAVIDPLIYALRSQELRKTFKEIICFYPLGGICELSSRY
Chain of mMC4R-NanoLuc and mMC4R-HaloTag homodimer (mouse) (P56450 whole entry, chain 2 of 2): as the sequence (P56450 whole entry, chain 1 of 2) above

Substance “α-MSH (from UniProt P01189 138-150) (ligand)” had a reduction in BRET signal at 10 µM compared to basal signal of 15%.
